Laboratory results published in article PMC9922994, “Comprehensive screening strategy coupled with structure-guided engineering of L-threonine aldolase from Pseudomonas putida for enhanced catalytic efficiency towards L-threo-4-methylsulfonylphenylserine” (Frontiers in Bioengineering and Biotechnology, 2023).

B1: L-PpTA (Pseudomonas putida KT2440) (protein)
chain: MTDKSQQFASDNYSGICPEAWVAMEKANRGHDRAYGDDQWTERASEYFRNLFETDCEVFFAFNGTAANSLALASLCQSYHSVICSETAHVETDECGAPEFFSNGSKLLTAASVNGKLTPQSIREVALKRQDIHYPKPRVVTITQATEVGTVYRPDELKAISATCKELGLNLHMDGARFTNACAFLGCSPAELTWKAGVDVLCFGGTKNGMAVGEAILFFNRQLAEDFDYRCKQAGQLASKMRFLSAPWVGLLEDGAWLRHGNHANHCAQLLASLVSDLPGVELMFPVEANGVFLQMPEHAIEALRGKGWRFYTFIGSGGARFMCSWDTEEARVRELAADIRTIIGG
notes: E. coli BL21(DE3); HisTrap, Resource Q, Superdex 200

System: T1, NCC(=O)O
T1 construct: E. coli BL21(DE3); HisTrap, Resource Q, Superdex 200
Assay: purified protein
Assay type: biochemical, Pseudomonas putida
Conditions: glycine varied 2.5-50 mM, co-substrate 4-methylsulfonylbenzaldehyde, PLP, HEPES-NaOH pH 8.0, 30 °C

Molecule	Km [mM]	kcat [s⁻¹]	kcat/Km [M⁻¹ s⁻¹]
L-PpTA (Pseudomonas putida KT2440; Y312R)	20.1	12.2	610
L-PpTA (Pseudomonas putida KT2440; Y312E)	25.3	15.3	600
L-PpTA (Pseudomonas putida KT2440; E147D)	15.1	6.5	430
L-PpTA (Pseudomonas putida KT2440; Y13C)	24.7	13.9	560
L-PpTA (Pseudomonas putida KT2440; Y13K)	19.6	10.4	530
L-PpTA (Pseudomonas putida KT2440; H133Y)	22.6	12.5	550
L-PpTA (Pseudomonas putida KT2440; H133W)	12.9	12.3	950
L-PpTA (Pseudomonas putida KT2440; H133N)	12.8	12.7	990
L-PpTA (Pseudomonas putida KT2440; A9L)	14.6	7.7	530
L-PpTA (Pseudomonas putida KT2440; A9V)	13.8	7.2	520

Substrate: NCC(=O)O
Assay: purified protein
Assay type: biochemical, Pseudomonas putida
Conditions: glycine varied 2.5-50 mM, co-substrate 4-methylsulfonylbenzaldehyde, PLP, HEPES-NaOH pH 8.0, 30 °C

Molecule	Km [mM]	kcat [s⁻¹]	kcat/Km [M⁻¹ s⁻¹]
B1	17.4	7.1	410
